# From the nanobody polyreactivity screen of Harvey et al. (2022)
# Test: yeast display, Sf9 membrane polyspecificity reagent, FACS + sequencing; frameworks hold sequencing errors
# Outline: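 Galactose-induced (36–48 hours) yeast carrying a synthetic nanobody display library were exposed to 10% biotinylated, detergent-solubilized Sf9 membrane reagent at 4 °C for 1 hour. FACS followed streptavidin microbead enrichment, using low and high (top ~1%) gates for expression (anti-HA) and reagent binding (streptavidin). Colony PCR, MiSeq 2 × 250 sequencing and CDR-length filtering followed. Labels for polyreactivity reflect the gate of origin.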
row,Sequence,polyreactivity (PSR sort gate)
1,QVQLVESGGGLVQAGGSLRLSCAASGFTFSQYVMGWSRQAPGKERELVASITGKGGSTRYADSVKGRFTISRDNAKNTVYLQMNSLKQEDTAVYYCAARYVYFRWGSFDYWGQGTQVTVSS,high polyreactivity
2,QVQLVESGGGLVQAGGSLRLSCAASGFTFSRKAMGWYRQAPGKERELVASITRSGASTYYADSVKGRFTISRDNAKNTVYLQMNSLKPEDTAVYYCNAYYVALPPNMDYWGQGTQVTLSS,high polyreactivity
3,QVQLVESGGGLVQAGGSLRLSCAASGFTFSRNTMGWYRQAPGKARELVARISASGGSTYYADSVKGRFTISRDNAKNTVYLQMNSLKPEDTAVYYCAAVYRRYGGSRYDYWGQGTQVTVSS,high polyreactivity
4,QVQLVESGGGLVQAGGSLRLSCAASGFTFSRNVMGWYRQAPGKERELVADITLSGASTYYADSVKGRFTISRDNAKNTVYLQMNSLKPEDTAVYYCAADPYHWRWGWRLDYWGQGTQVTVSS,low polyreactivity
5,QVQLVESGGGLVQAGGSLRLSCAASGFTFSRYAMGWYIQAPGKERELVAAITRGGSTNYADSVKGRFTISRDNAKNTVYLQMNSLKPEDTAVYYCAVRIRYSTNAYYYWGQGTQVTVSS,high polyreactivity
6,QVQLVESGGGLVQAGGSLRLSCAASGFTFSRYAMGWYRQAPGKERELVAAISYSGGRTYYADSVKGRFTISRDNAKNTVYLQMNSLKPEDTAVYYCNATWQSGHGWGQGTQVTVSS,high polyreactivity
7,QVQLVESGGGLVQAGGSLRLSCAASGFTFSRYTMGWYRQAPGKERELVAAINRRGGSTYYADSVKGRFTISRDNAKNTVYLQMNSLKPEDTAVYYCAAAVYLGRFGVILGYWGQGTQVTVSS,high polyreactivity
8,QVQLVESGGGLVQAGGSLRLSCAASGFTFSRYTMGWYRQAPGKERELVAAISFSGVRTYYADSVKGRFTISRDNAKNSVYLQMNSLKPEDTAVYYCNRVSRTRGLNLYDYWGQGTQVTVSS,high polyreactivity
9,QVQLVESGGGLVQAGGSLRLSCAASGFTFSSYAMGGYRQAPGKERELVAAISSNGRTYYADSVKGRFTISRDNAKNTVYLQMNSQKREDTAVYYCARNIPVSYYRYGYWGQGTQVTVSS,high polyreactivity
10,QVQLVESGGGLVQAGGSLRLSCAASGFTFSSYAMGWSRQAPGKERELVAAITISGGRTYYADSVKGRFTISRDNAKNTVYLQMNSLIPEDTAVYYCAAVGRLARRDYWGQGTQVTVSS,high polyreactivity
11,QVQLVESGGGLVQAGGSLRLSCAASGFTFSSYAMGWYRQAPGKERELVAAITGGGSRTYYADSVKGRFTISRDNAKNTVYLQMYSLKPEDTAVYYCAKGLSTGRAYRGYDYWGQGTQVTVSS,high polyreactivity
12,QVQLVESGGGLVQAGGSLRLSCAASGFTFSSYAMGWYRQAPGKERELVAAITQSGGRTYYADSVKGRFTISRDNAKNTVYLQMNSLKPEDTAVYYCAADVPLWYDYGGQGTQVTVSS,low polyreactivity
13,QVQLVESGGGLVQAGGSLRLSCAASGFTFSTNAMAWYRQAPGKERELVAAITSSGGSTYYADSVKGRFTISRDNAKNTVYLQMNSLKPEDTAVYYCATGPSQVGGDYWGQGTQVTVSS,high polyreactivity
14,QVQLVESGGGLVQAGGSLRLSCAASGFTFSTNAMGWYRQAPGKERELVAAISKSGVSTYYADSVKGRFTISRDNAKNTVYLQMNSLKTEDTAVYYCAADPKIALYKVWRYDYWGQGTQVTVSS,high polyreactivity
15,QVQLVESGGGLVQAGGSLRLSCAASGFTFSTYAMGWYRQAPGKERELVAAISRSGGSTYYADSVKGRFTISRDNAKNTVYLQMNSLKPEDTAVYYCAADGLRRESSYYYWGQGTQVTVSS,high polyreactivity
16,QVQLVESGGGLVQAGGSLRLSCAASGFTFSTYAMGWYRQAPGKESELVAVISGGDSTSYADSVKGRFTISRDNAKNTVYLQMNSLKPEDTAVYYCAADRYGGYYGDTYYTGLFNYWGQGTQVTVSS,high polyreactivity
17,QVQLVESGGGLVQAGGSLRLSCAASGFTFSVYAMGWYRQAPGKERELVAVITKRGGSTYYADSVKGRFTISRDNAKNTVYLQMNSLKPEDTAVYYCNAYLQGKIFPYGYWGQGTQVTVSS,high polyreactivity
18,QVQLVESGGGLVQAGGSLRLSCAASGFTFSVYVMGWYRQAPGKERELVAAISSGGDTTYADSVKGRFTISRDNAKNTVYLQMNSLKPEDTAVYYCAAYRVILYYLYDYWGQGTQVTVSS,low polyreactivity
19,QVQLVESGGGLVQAGGSLRLSCAASGFTFSWNTMGWYRQAPGKERELVATISGSGGRTYYADSVKGRFTISRDKAKNTVYLQLNSLKPEDTAVYYCAKRRASRYYWGQGTQVTVSS,high polyreactivity
20,QVQLVESGGGLVQAGGSLRLSCAASGFTFSWNVMGWYRQAPGKERELVAAISTSYGGTYYADSVKGRFTISRDNAKNTVYLQMNSLKPEDTAVYYCATLYYPNTSYEYYYWGQGTQVTVSS,low polyreactivity
21,QVQLVESGGGLVQAGGSLRLSCAASGFTFSWYAMGWSRQAPGKERELVAGISYSGTRTFYADSVKGRFTISRDNAKNTVYLQMNSLTPEDTAVYYCAAVVPGRTVLQPEYDYWGQGTQVTVSS,low polyreactivity
22,QVQLVESGGGLVQAGGSLRLSCAASGFTFSWYAMGWYRQAPGKERELVAAINADGGTTYYADSVKGRFTISRDNAKNTVYLQMNSLKPEDTAVYYCAVPYPYGYEYDHWGQGTQVTVSS,low polyreactivity

row,Sequence,polyreactivity (PSR sort gate)
1,QVQLVESGGGLVQAGGSLRLSCAASGFTFSWYAMGWYRQAPGKERELVAAITRSGGSTNYADSVKGRFTISRDNAKNTVYLQMNSLKPEDTAVYYCNAAGYRRSTWWYDYWGQGTQVTVSS,high polyreactivity
2,QVQLVESGGGLVQAGGSLRLSCAASGFTFSYNAMGWYRQAPGKERELVAAISSGGRTHYADSVKGRFTISRDNAKNTVYLQMNILKPEDTAVYYCNAQKYPRYSRTSGRNYNYWGQGTQVTVSS,high polyreactivity
3,QVQLVESGGGLVQAGGSLRLSCAASGFTFSYYAMGWYRQAPGKERELVAAISWSGGSTYSADSVKGRFTISRDNAKNTVYLQMNSLKPEDTAVYYCAAEVYFLATGTWYDYWGQGTQVTVSS,high polyreactivity
4,QVQLVESGGGLVQAGGSLRLSCAASGFTFSYYAMGWYRQAPGKERELVAAITSGGSTYYADSVKGRFTISRDNAKNTVYLQMNSLKPEDTAVYYCNARGYGTLNVRRERMDYWGQGTQVTVSS,high polyreactivity
5,QVQLVESGGGLVQAGGSLRLSCAASGFTFSYYDMGWYRQAPGKERELVAAISSSASRTYYADSVKGRFTISRDNAKNTVYLQMNSLKPEDTAVYYCAARYSESRTGHLDYWGQGTQVTVSS,high polyreactivity
6,QVQLVESGGGLVQAGGSLRLSCAASGFTFSYYGMGWNIQAPRKERELVPALTRSGTNTYYADSVKGRFTISRDNAKNTVYLQMKSLKPEDTAVFYCNADVAWSGYHDWYWSSEDYWGQGTQVTVSS,low polyreactivity
7,QVQLVESGGGLVQAGGSLRLSCAASGFTFTDYAMGWYRQAPGKERELVAAISGIGGSTYYADSVKGRFTISRDNAKNTVYLQMNSLKPEDTAVYYCAAELTKWRFWGLHDSWGQGTQVTVSS,high polyreactivity
8,QVQLVESGGGLVQAGGSLRLSCAASGFTFTDYAMGWYRRAPGKESELVAAISSGGSTNYADSVKGRFTISRDNAKNTVYLQMNSLKPEDTAVYYCAAYYVYRAPVRYEYWGQGTQVTVSS,high polyreactivity
9,QVQLVESGGGLVQAGGSLRLSCAASGFTFTDYTMGWYRQAPGKEREFVAAISYRGSNTYYADSVKGRFTISRDNAKNTVYLQMNSLKPEDTAVYYCAADSYRYKYNYWGQGTQVTVSS,high polyreactivity
10,QVQLVESGGGLVQAGGSLRLSCAASGFTFTGNAMVWYRQAPGKERELVAAIRGSGGSTYYADSVKGRFTISRDNAKNTVNLQMKSLKPDVTAVYYCATYYIRNKGFDYWGQGTQVTVSS,high polyreactivity
11,QVQLVESGGGLVQAGGSLRLSCAASGFTFTGYAMGWYRQAPGKERELVAAISHDGGSTYYADSVKGRFTISRDNAKNTVYLQMNSLKPEDTAVYYCAAAFRAAGRTVRYYWGQGTQVTVSS,high polyreactivity
12,QVQLVESGGGLVQAGGSLRLSCAASGFTFTGYAMGWYRQAPGKERELVAALTRGGGSTYYADSVKGRFTISRDNAKNTVYLQMNSLKPEDTAVYYCAAQRSRLIRISSPYYGHDYWGQGTQVTVSS,low polyreactivity
13,QVQLVESGGGLVQAGGSLRLSCAASGFTFTLYAMGWYRQAPGKERELVAAISWNGSTYYADSVKGRFTISRDNAKNTVYLQMNSLKPEDTAVYYCNADVWISYNNAYVTLDYWGQGTQVTVSS,high polyreactivity
14,QVQLVESGGGLVQAGGSLRLSCAASGFTFTPNAMGWYRQAPGKERELVAAITWNGGTTYYADSVKGRFTISRDNAKNTVYLQMNSLKPEDTAVYYCNADGLILYDYWGQGTQVTVSS,low polyreactivity
15,QVQLVESGGGLVQAGGSLRLSCAASGFTFTRYAMGRYRQAPGKERELGATITKRGGSTYYADSVKGRFTISRDNAKNTVYLQLNSLKPEDTAVYFCAARNVRTYVTGVDYDYWGQGTQVTVSS,high polyreactivity
16,QVQLVESGGGLVQAGGSLRLSCAASGFTFTRYAMGWYRQAPGKERELVAAISRIGGSTYYADSVKGRFTISRDNAKNTVYLQMNSLKPEDTAVYYCAAYKVPSYDYWGQGTQVTVSS,high polyreactivity
17,QVQLVESGGGLVQAGGSLRLSCAASGFTFTSYAMGWYRQAPGKERELVAAINRSGGSTTYADSEKGRFTISRDNAKNTVYLQMNSLKPEDTAVYYCAKAFRGHYWGQGTQVTVSS,high polyreactivity
18,QVQLVESGGGLVQAGGSLRLSCAASGFTFTSYTMGWYRQAPGKERELVAGISTNGGTTYYADSVKGRFTISRDNAKNTVYLQMNSLKPEDTAVYYCNAKRKYGRFPKKYYYWGQGTQVTVSS,high polyreactivity
19,QVQLVESGGGLVQAGGSLRLSCAASGFTFTVYAMGWYRQAPGQERELVATISRSAGRTYYADSVKGRFTISRDNAKNTVYLQMNSLKPEDTPVYYCNAAYGNGYTGGFDNWGQGTQVTVSS,high polyreactivity
20,QVQLVESGGGLVQAGGSLRLSCAASGFTFTWYAMGWYRQAPGKERELVATISRSGGRTYYADSVKGRFTISRDNAKNTVYLQLNSLKPEDTAVYYCAADTRNYPRYDYWGQGTQVTVSS,high polyreactivity
21,QVQLVESGGGLVQAGGSLRLSCAASGFTFTYYAMGWYRQAPGKERELVAAISSSGGRTYYADSVKGRFTISRDNAKNTVYLQMNSLKPEDTAVYYCAARSVSATPDFHYWGQGTQVTVSS,high polyreactivity
